The values below come from patent publication US20230416333A1 (SHATTUCK LABS, published 2023).

In test [1] the target is T1, CD19 expressed on the cell surface (UniProt P15391 20-556).
T1 construct: whole, on cells; also called HEK293-CD19 cells; CD19 on Daudi cells
T1 sequence (looked up): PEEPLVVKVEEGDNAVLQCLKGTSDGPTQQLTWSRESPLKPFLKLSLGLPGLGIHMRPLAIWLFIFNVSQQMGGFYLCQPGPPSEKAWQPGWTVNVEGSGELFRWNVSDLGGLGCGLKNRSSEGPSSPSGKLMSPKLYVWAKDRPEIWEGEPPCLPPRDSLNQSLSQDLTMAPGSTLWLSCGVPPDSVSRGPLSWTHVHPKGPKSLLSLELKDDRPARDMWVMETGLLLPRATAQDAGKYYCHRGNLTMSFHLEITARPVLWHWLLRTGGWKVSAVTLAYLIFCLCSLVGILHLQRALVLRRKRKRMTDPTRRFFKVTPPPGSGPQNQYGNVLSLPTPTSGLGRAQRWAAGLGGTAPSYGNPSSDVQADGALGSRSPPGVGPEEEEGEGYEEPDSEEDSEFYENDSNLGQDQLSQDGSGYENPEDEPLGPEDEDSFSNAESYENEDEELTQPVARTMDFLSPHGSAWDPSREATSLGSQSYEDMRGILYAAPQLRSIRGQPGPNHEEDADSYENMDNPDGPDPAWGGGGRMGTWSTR
Briefly: flow cytometry on HEK293-CD19 cells, anti-Fc detection. In general terms: Flow cytometry measures light scatter and fluorescence of single cells or particles in a stream.

The target in test [2] is T1, CD19 expressed on the cell surface. Briefly: flow cytometry on Daudi cells; Daudi cells (CD19+), flow cytometry.
Test [3] deals with T2, recombinant CD19-His protein (human, UniProt P15391 20-291).
T2 construct: Immobilized on the Octet biosensor; also called Human CD19
T2 sequence (looked up): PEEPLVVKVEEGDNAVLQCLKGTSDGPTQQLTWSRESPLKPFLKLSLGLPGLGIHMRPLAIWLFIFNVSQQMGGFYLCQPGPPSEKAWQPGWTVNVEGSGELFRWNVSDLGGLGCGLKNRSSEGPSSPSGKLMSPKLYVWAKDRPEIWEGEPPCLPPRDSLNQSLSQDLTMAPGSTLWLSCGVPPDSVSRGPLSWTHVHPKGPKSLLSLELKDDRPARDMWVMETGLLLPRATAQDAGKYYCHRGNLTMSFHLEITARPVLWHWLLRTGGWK
Kind of test: Octet (ForteBio) BLI, recombinant CD19-His immobilized on biosensor. An excerpt:
A heterodimer lacking CD19scFv was used as a negative control.
(Biolayer interferometry detects binding as a change in optical thickness at a sensor tip.)

B1: BTN2A1/3A1-Fc-CD19scFv GADLEN protein (heterodimer with charged polarized linkers) (Fc fusion)
chain 1: QFIVVGPTDPILATVGENTTLRCHLSPEKNAEDMEVRWFRSQFSPAVFVYKGGRERTEEQMEEYRGRTTFVSKDISRGSVALVIHNITAQENGTYRCYFQEGRSYDEAILHLVVAGLGSKPLISMRGHEDGGIRLECISRGWYPKPLTVWRDPYGGVAPALKEVSMPDADGLFMVTTAVIIRDKSVRNMSCSINNTLLGQKKESVIFIPESFMPSVSPCAGSGSRKGGKRGSKYGPPCPPCPAPEFLGGPSVFLFPPKPKDQLMISRTPEVTCVVVDVSQEDPEVQFNWYVDGVEVHNAKTKPREEQFNSTYRVVSVLTVLHQDWLSGKEYKCKVSSKGLPSSIEKTISNATGQPREPQVYTLPPSQEEMTKNQVSLTCLVKGFYPSDIAVEWESNGQPENNYKTTPPVLDSDGSFFLYSRLTVDKSRWQEGNVFSCSVLHEALHNHYTQKSLSLSLGKDEGGEDGSDIQMTQTTSSLSASLGDRVTISCRASQDISKYLNWYQQKPDGTVKLLIYHTSRLHSGVPSRFSGSGSGTDYSLTISNLEQEDIATYFCQQGNTLPYTFGGGTKLEITGGGSGGGSGGGSEVKLQESGPGLVAPSQSLSVTCTVSGVSLPDYGVSWIRQPPRKGLEWLGVIWGSETTYYNSALKSRLTIIKDNSKSQVFLKMNSLQTDDTAIYYCAKHYYYGGSYAMDYWGQGTSVTVSS
chain 2: not shown
notes: The residue ranges were counted from the printed parts; also called BTN2A1/3A1-Fc-CD19scFv heterodimeric protein; human BTN2A1/3A1-Fc-CD19scFv GADLEN protein
On to B1, for which the EC50 (in general, the concentration that produces a half-maximal response) in test [1] came out at 0.89 nM; in test [2] it was 5 nM. Further, in test [3], the Kd (commonly the concentration at which binding is half-saturated) is 13.8 nM.
